Data from publication PMC8693861, “Structure, mechanism, and inhibition of Hedgehog acyltransferase” (Molecular Cell, 2021).

B1: nanobody NB169 (VHH)
VHH: QVQLVESGGGLVQAGGSLRLSCAASGSIRSINGMGWYRQAPGKQRELVAALSSGGSTNYADSVKGRFTISRDNAKKTVNLQMNSLKPEDTAVYYCNARRGGRSWSEGPPYDYWGQGTQVTVSS
B2: nanobody NB177 (VHH)
VHH: QVQLVESGGGLVQAGGSLRLSCTASGAIFSTYDVSWYRQAPEKPRELVAIITRGGNTHYADTVKGRFTISRDNAKNTVYLQMNSLKPEDTAVYYCHAGVQGAMLGPRNYWGQGTQVTVSS

Target: biotinylated human HHAT-Avi-1D4 (pHR-CMV-TetO2-HHAT-wildtype-Avi-1D4) (Homo sapiens, natural variant VAR_024743, strain, biotin on the biotinylation tag)
Test: cell-based or functional assay

Sequence of biotinylated human HHAT-Avi-1D4 (pHR-CMV-TetO2-HHAT-wildtype-Avi-1D4) (Homo sapiens, natural variant VAR_024743, strain, biotin on the biotinylation tag) (Q5VTY9 other isoform, or with tags, fused parts or gaps, change not shown): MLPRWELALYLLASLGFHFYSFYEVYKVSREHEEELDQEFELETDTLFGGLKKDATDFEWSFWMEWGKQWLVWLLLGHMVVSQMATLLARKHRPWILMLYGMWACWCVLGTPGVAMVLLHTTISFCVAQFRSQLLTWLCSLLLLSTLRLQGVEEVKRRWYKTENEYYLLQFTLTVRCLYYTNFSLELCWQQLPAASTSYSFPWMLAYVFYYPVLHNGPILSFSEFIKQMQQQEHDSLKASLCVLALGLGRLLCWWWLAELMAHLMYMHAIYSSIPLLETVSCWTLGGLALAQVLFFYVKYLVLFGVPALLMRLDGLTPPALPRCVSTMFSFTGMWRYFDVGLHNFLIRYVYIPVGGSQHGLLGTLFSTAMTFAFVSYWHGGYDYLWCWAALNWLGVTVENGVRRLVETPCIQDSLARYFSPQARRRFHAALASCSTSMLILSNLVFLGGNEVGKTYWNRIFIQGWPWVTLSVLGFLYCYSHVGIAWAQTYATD

Binder	IC50 of inhibition of HHAT-catalysed palmitoyl transfer to a SHH peptide (acyl-cLIP assay); blocks HHAT with SHH [nM]
B1	1.3
B2	0.9
